Laboratory results published in patent US20250215097A1 (BEIJING TIANNUOJIANCHENG PHARMA TECH, published 2025).

T1: human CCR4 (human, UniProt P51679 1-360)
T1 construct: also called hCCR4; human CCR4+ cells
T1 sequence: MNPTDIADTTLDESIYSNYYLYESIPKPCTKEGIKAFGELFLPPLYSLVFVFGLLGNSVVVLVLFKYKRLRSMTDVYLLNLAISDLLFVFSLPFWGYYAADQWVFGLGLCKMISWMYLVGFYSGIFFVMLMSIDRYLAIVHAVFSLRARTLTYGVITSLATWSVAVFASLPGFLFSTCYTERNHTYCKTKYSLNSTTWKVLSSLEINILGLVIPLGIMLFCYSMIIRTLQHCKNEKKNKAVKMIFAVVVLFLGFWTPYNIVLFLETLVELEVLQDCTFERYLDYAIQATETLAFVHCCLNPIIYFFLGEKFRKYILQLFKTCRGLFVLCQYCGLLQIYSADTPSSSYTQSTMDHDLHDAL


Key:
human CCR8 [1] = target: T2, human CCR8 (human, UniProt P51685 1-355); test: flow cytometry, chimeric IgG on CHO-hCCR8 cells
T2 construct: Full-length human CCR8 stably expressed on CHO or HEK293 cells; also endogenous on HuT78 cells in one ADCC assay; also called hCCR8; CHO-hCCR8
Protocol: (§1) 5×10⁴ CHO-hCCR8 or CHO-cynoCCR8 cells were added per well in a 96-well U-shaped plate and centrifuged to discard the supernatant, 100 μL of a gradiently diluted anti-CCR8 chimeric antibody or anti-KLH isotype control antibody was added per well and the mixture was incubated on ice for 60 minutes. After the unbound primary antibody was washed away, 50 μL of a secondary antibody AlexaFluro647 anti-human IgG (Jackson Immuno Research #109-606-170) was added per well and the mixture was incubated on ice for 30 minutes. After the washing, 50 μL of 5 μg/mL of a PI/BSA solution was added to each well and the mixture was incubated on ice for 5 minutes. Then excess secondary antibody was washed away with 0.5% BSA, the cells were resuspended by adding a PBS solution, and binding of the antibody to the cells was detected using a flow cytometer (Intellicyte iQue). The fluorescence value of a Pi-negative cell population was analyzed. Cell-binding curves were fitted by Graphpad Prism 7 (FIG. 2). The chimeric antibodies of 87D8, 102H5, 109F6, 110G2, 113B3, 139A9, 144D2, etc. all bound with high affinities to human CCR8+ cells CHO-hCCR8 and cynomolgus monkey CCR8+ cells CHO-cynoCCR8.

human CCR8 [2] = target: T2, human CCR8; test: cell-based or functional assay
cynomolgus monkey CCR8 = target: T3, cynomolgus monkey CCR8 (cynomolgus monkey, UniProt O97665 1-356 (rhesus entry)); test: flow cytometry, chimeric IgG on CHO-cynoCCR8 cells
T3 construct: Full-length, stably expressed on CHO cells; also called cynoCCR8; CHO-cynoCCR8
Protocol: as §1

human CCR4 = target: T1, human CCR4; test: flow cytometry of purified Fab on cells stably expressing human CCR4
Protocol: The positive clones obtained in example 1 were re-induced to express and purified to obtain a Fab antibody. The binding to cells stably expressing human CCR8, cynomolgus monkey CCR8 and human CCR4 was tested respectively, 5×10⁴ test cells were added to each well of a 96-well U-shaped plate and centrifuged to discard the supernatant, 100 μL/well of the purified Fab antibody was added and the mixture was incubated on ice for 60 minutes. After washing away the unbound primary antibody, 50 μL of a secondary antibody solution (Anti-human IgG, F(ab′)2-AF647, Jackson Immuno Research) was added to each well and the mixture was incubated on ice for 30 minutes. After washing, 50 μL of a PI/BSA solution at 5 μg/mL was added to each well and the mixture was incubated on ice for 5 minutes. Then excess secondary antibody was washed away with 0.5% BSA, the cells were resuspended by adding a PBS solution, and binding of the antibody to the cells was detected using a flow cytometer (Intellicyte iQue).

human CCR8 [3] = target: T2, human CCR8; test: flow cytometry, purified Fab on CHO-hCCR8 cells
human CCR8 [4] = target: T2, human CCR8; test: cell-based or functional assay; remark: listed apart in the source
human CCR8 [5] = target: T2, human CCR8; test: cell-based or functional assay; remark: listed apart in the source

T3 sequence (O97665 other isoform, or with tags, fused parts or gaps): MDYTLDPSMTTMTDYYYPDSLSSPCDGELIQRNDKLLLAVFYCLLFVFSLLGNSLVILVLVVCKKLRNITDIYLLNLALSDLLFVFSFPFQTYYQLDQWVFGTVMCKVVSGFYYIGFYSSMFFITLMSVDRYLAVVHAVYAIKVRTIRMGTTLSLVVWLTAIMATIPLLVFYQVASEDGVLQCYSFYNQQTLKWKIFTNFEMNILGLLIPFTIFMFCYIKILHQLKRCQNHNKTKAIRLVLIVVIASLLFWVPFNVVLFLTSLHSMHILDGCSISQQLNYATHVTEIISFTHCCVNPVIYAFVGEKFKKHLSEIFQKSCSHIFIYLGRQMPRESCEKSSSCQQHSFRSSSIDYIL
T2 sequence (P51685 whole entry): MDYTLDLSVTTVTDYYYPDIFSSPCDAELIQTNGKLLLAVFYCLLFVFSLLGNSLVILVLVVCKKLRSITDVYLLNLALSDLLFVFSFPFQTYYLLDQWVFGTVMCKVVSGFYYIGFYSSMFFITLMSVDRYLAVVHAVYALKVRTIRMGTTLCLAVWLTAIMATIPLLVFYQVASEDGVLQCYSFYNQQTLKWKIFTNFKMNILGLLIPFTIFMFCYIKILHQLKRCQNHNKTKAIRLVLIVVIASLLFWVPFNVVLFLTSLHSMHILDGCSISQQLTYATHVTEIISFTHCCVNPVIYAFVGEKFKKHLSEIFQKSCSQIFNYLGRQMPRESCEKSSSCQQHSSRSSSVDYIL

| EC50 (human CCR8 [1]) [nM] | ADCC EC50 (nM), NK92-CD16A effectors, HEK293-hCCR8 targets, LDH release (human CCR8 [2]) [nM] | EC50 (cynomolgus monkey CCR8) [nM] | binding result (human CCR4) | Binder | also measured |
| --- | --- | --- | --- | --- | --- |
| 0.46 | 0.06 | 1.18 |  | 102H5 anti-CCR8 chimeric antibody (antibody, V domains shown) VH: QVQLVESNGRLVQPKGSLKLSCAASGFTFNAYAMNWVRQAPGKGLEWVARIRSKSNNYATYYADSVKDRFTISRDDSQNMLYLQMNNLKTEDTAMYFCVRQKFGARGYYALDFWGQGATVTVSS VL: DIVLTQSPASLAVSLGQRATISCRASESVEYYGTSLMQWYQQKPGQPPKLLIYAASNVESGVPARFSGSGSGTDFSLNIHPVEEDDIAMYFCQQSRKVPYTFGGGTKLEIK |  |
| 0.45 | 0.04 | 1.26 |  | 110G2 anti-CCR8 chimeric antibody (antibody, V domains shown) VH: QVQLVESNGRLVQPKGSLKLSCAASGFTFNAYAMNWVRQAPGKGLEWVARIRSKSNNYATYYADSVKDRFTISRDDSQSMLYLQMNNLKTEDTAMYFCVRQKFGARGYYALDFWGQGASVTVSS VL: EILLTQSPAIMSASPGEKVTMTCRASSSVSSSYLHWYQQKSGASPKLWIYSTSNLASGVPARFSGSGSGTSYSLTISSVEAEDAATYYCQQYSGYPYTFGGGTKLEIK |  |
|  |  |  | no binding | 113B3 Fab antibody (Fab, V domains shown, also called clone 113B3) VH: EVQLVESNGGLVQPKGSLKLSCAASGFTFNAYAMNWVRQAPGKGLEWVARIRSKSNNYATYYADSVKDRFTISRDDSQSMLYLQMNNLKTEDTAMYFCVRQKFGSRGYYALDFWGQGATVTVSS VL: QIVLTQSPAIMSASLGERVTMTCTASSSVSSSYLHWYQQKPGSSPKLWIYSTSNLASGVPARFSGSGSGTSYSLTISSMEAEDAATYYCHQYHRSPRTFGGGTRLEIK |  |
|  |  |  | no binding | 116F10 Fab antibody (Fab, V domains shown, also called clone 116F10) VH: EVQLVESYGGLVQPKGSLKLSCAASGFTFNAYAMNWVRQAPGKGLEWVARIRSKSNNYATYYADSVKDRFTISRDDSQNILYLQMNNLKIEDTAMYFCVRQKFGSRGYYALDFWGQGASVTVSS VL: EIVLTQSPAIMSVSPGEKVTMTCRASSSVSSSYLHWYQQKSGASPKLWIYSTSTLASGVPARFSGSGSGTSYSLTISSVEAEDAATYYCQHYTVYPLGTFGGGTKLEIK |  |
|  |  |  | no binding | 110G2 Fab antibody (Fab, V domains shown, also called clone 110G2) VH: QVQLVESNGRLVQPKGSLKLSCAASGFTFNAYAMNWVRQAPGKGLEWVARIRSKSNNYATYYADSVKDRFTISRDDSQSMLYLQMNNLKTEDTAMYFCVRQKFGARGYYALDFWGQGASVTVSS VL: EILLTQSPAIMSASPGEKVTMTCRASSSVSSSYLHWYQQKSGASPKLWIYSTSNLASGVPARFSGSGSGTSYSLTISSVEAEDAATYYCQQYSGYPYTFGGGTKLEIK |  |
| 0.58 | 0.1 | 1.25 |  | 116F10 anti-CCR8 chimeric antibody (antibody, V domains shown) VH: EVQLVESYGGLVQPKGSLKLSCAASGFTFNAYAMNWVRQAPGKGLEWVARIRSKSNNYATYYADSVKDRFTISRDDSQNILYLQMNNLKIEDTAMYFCVRQKFGSRGYYALDFWGQGASVTVSS VL: EIVLTQSPAIMSVSPGEKVTMTCRASSSVSSSYLHWYQQKSGASPKLWIYSTSTLASGVPARFSGSGSGTSYSLTISSVEAEDAATYYCQHYTVYPLGTFGGGTKLEIK |  |
| 0.4 | 0.04 | 1.99 |  | 113B3 anti-CCR8 chimeric antibody (antibody, V domains shown) VH: EVQLVESNGGLVQPKGSLKLSCAASGFTFNAYAMNWVRQAPGKGLEWVARIRSKSNNYATYYADSVKDRFTISRDDSQSMLYLQMNNLKTEDTAMYFCVRQKFGSRGYYALDFWGQGATVTVSS VL: QIVLTQSPAIMSASLGERVTMTCTASSSVSSSYLHWYQQKPGSSPKLWIYSTSNLASGVPARFSGSGSGTSYSLTISSMEAEDAATYYCHQYHRSPRTFGGGTRLEIK |  |
|  |  |  | no binding | 102H5 Fab antibody (Fab, V domains shown, also called clone 102H5) VH: QVQLVESNGRLVQPKGSLKLSCAASGFTFNAYAMNWVRQAPGKGLEWVARIRSKSNNYATYYADSVKDRFTISRDDSQNMLYLQMNNLKTEDTAMYFCVRQKFGARGYYALDFWGQGATVTVSS VL: DIVLTQSPASLAVSLGQRATISCRASESVEYYGTSLMQWYQQKPGQPPKLLIYAASNVESGVPARFSGSGSGTDFSLNIHPVEEDDIAMYFCQQSRKVPYTFGGGTKLEIK |  |
| 0.2 | 0.07 | 0.74 |  | 109F6 anti-CCR8 chimeric antibody (antibody, V domains shown) VH: QVQLVESNGRLVQPKGSLKLSCAASGFTFNAYAMNWVRQAPGKGLEWVARIRSKSNNYATYYADSVKDRFTISRDDSQSMLYLQMNNLKTEDTAMYFCVRQKFGARGYYALDFWGQGASVTVSS VL: DIVLTQSPASLAVSLGQRATISCRASKSVSTSGYSYMHWYQQKPGQPPKLLIYLASNLESGVPARFSGSGSGTDFTLNIHPVEEEDAATYYCQHSRELPPTFGGGTKLEIK |  |
|  |  |  | no binding | 109F6 Fab antibody (Fab, V domains shown, also called clone 109F6) VH: QVQLVESNGRLVQPKGSLKLSCAASGFTFNAYAMNWVRQAPGKGLEWVARIRSKSNNYATYYADSVKDRFTISRDDSQSMLYLQMNNLKTEDTAMYFCVRQKFGARGYYALDFWGQGASVTVSS VL: DIVLTQSPASLAVSLGQRATISCRASKSVSTSGYSYMHWYQQKPGQPPKLLIYLASNLESGVPARFSGSGSGTDFTLNIHPVEEEDAATYYCQHSRELPPTFGGGTKLEIK |  |
|  |  |  | no binding | 139A9 Fab antibody (Fab, V domains shown, also called clone 139A9) VH: QVQLVESNGRLVQPKGSLKLSCAASGFTFNAYAMNWVRQAPGKGLEWVARIRSKSNNYATYYADSVKDRFTISRDDSQSMLYLQMNNLKTEDTAMYFCVRQKFGARGYYALDFWGQGASVTVSS VL: ENVLTQSPTTMAASPGEKITITCSASSSISSNYLHWYQQKPGFSPKLLIYRTSNLASGVPARFSGSGSGTSYSLTIGTMEAEDVATYYCQQGSSIPLTFGAGTKLELK |  |
| 0.49 | 0.06 | 1.99 |  | 139A9 anti-CCR8 chimeric antibody (antibody, V domains shown) VH: QVQLVESNGRLVQPKGSLKLSCAASGFTFNAYAMNWVRQAPGKGLEWVARIRSKSNNYATYYADSVKDRFTISRDDSQSMLYLQMNNLKTEDTAMYFCVRQKFGARGYYALDFWGQGASVTVSS VL: ENVLTQSPTTMAASPGEKITITCSASSSISSNYLHWYQQKPGFSPKLLIYRTSNLASGVPARFSGSGSGTSYSLTIGTMEAEDVATYYCQQGSSIPLTFGAGTKLELK |  |
|  |  |  | no binding | 144D2 Fab antibody (Fab, V domains shown, also called clone 144D2; 144D2 (female parent)) VH: EVQLVESGGGLVQPKGSLKLSCAASGFTFNAFAMNWVRQAPGKGLEWVARIRSKSNNYATYYADSVIDRFTISRDDSQSMLYLQMNNLKTEDTAMYYCVRGKEAGAYYAMDYWGQGTSVTVSS VL: DIVMTQAAPSVPVTPGESVSISCRSSKSLLHSNGNTYLYWFLQRPGQSPQLLIYRMSNLASGVPDRFSGSGSGTAFTLRISRVEAEDVGVYYCMQHLEYPLTFGAGTKLEIK | EC50 (human CCR8 [3]): 2.8 nM |
|  |  |  |  | h87D8 H1K1 hIgG1 e5 (antibody, V domains shown) VH: EVQLVESGGGLVQPGGSLRLSCAASGFTFNTYAMNWVRQAPGKGLEWVARIRSKSNNYATYYADSVKGRFTISRDDSQSSLYLQMNSLRAEDTAVYYCVRGKEAGAYYAMDYWGQGTLVTVSS VL: DIVMTQSPLSLPVTPGEPASISCRSSKSLLHSNGNTYLYWFLQKPGQSPQLLIYRMSNLASGVPDRFSGSGSGTDFTLKISRVEAEDVGVYYCMQHLEYPLTFGQGTKLEIKR | ADCC EC50 (nM), PBMC FcγRIIIA158F/F effectors, HEK293-hCCR8 targets (human CCR8 [4]): 0.01 nM; ADCC EC50 (nM), PBMC FcγRIIIA158V/V effectors, HEK293-hCCR8 targets (human CCR8 [4]): 0.01 nM; ADCC maximal lysis rate, PBMC FcγRIIIA158F/F effectors, HEK293-hCCR8 targets (human CCR8 [4]): 70%; ADCC maximal lysis rate, PBMC FcγRIIIA158V/V effectors, HEK293-hCCR8 targets (human CCR8 [4]): 72%; ADCC maximal lysis rate, NK92-CD16A effectors, HEK293-hCCR8 targets (human CCR8 [5]): 58%; half-maximal effective concentration EC50 of inhibition of the Ca2+ current signal, CHO-hCCR8 cells, CCL1 stimulus (human CCR8 [5]): 5.59 nM |
